We go through 1 protein from publication PMC5183593, “Conformational Rigidity within Plasticity Promotes Differential Target Recognition of Nerve Growth Factor” (Frontiers in Molecular Biosciences, 2016).

As a reminder, the stoichiometry N is the number of molecules, sites or subunits per partner or assembly.

The series deals with the molecule itself. The experiment in a line: NMR relaxation (T1, T2, heteronuclear NOE); 15N relaxation at 600 MHz and 30°C; correlation time 14.8 ns.

B1: recombinant mouse Nerve Growth Factor (mNGF) (natural protein, UniProt P01139 122-241, looked up)
chain: SSTHPVFHMGEFSVCDSVSVWVGDKTTATDIKGKEVTVLAEVNINNSVFRQYFFETKCRASNPVESGCRGIDSKHWNSYCTTTHTFVKALTTDEKQAAWRFIRIDTACVCVLSRKATRRG
modifications: 15N or 15N-13C isotope labeled
notes: Nerve Growth Factor (beta-NGF), mouse, mature form cut from the precursor proNGF; 118 amino acids per protomer (S1 to residue 118), non-covalent homodimer of 26 kDa; numbers count on: the mature protein; Expression host and the details of the construct are in the Supplementary Information and in Paoletti et al., 2011; also called mouse NGF
Regarding B1, the “stoichiometry N” value stood at 2.
